These are literature values, as cited in PMC6440808.

Where two headings read alike, the source gives them in different places.

One may read the Kd as a measure of binding affinity in units of concentration.

In series [1] the target is C4b (Homo sapiens) (UniProt P0C0L4).
Series [2] shares this target. The source holds these as a separate data set.

UniProt P0C0L4, sequence (P0C0L4 20-1744, chain 1 of 2): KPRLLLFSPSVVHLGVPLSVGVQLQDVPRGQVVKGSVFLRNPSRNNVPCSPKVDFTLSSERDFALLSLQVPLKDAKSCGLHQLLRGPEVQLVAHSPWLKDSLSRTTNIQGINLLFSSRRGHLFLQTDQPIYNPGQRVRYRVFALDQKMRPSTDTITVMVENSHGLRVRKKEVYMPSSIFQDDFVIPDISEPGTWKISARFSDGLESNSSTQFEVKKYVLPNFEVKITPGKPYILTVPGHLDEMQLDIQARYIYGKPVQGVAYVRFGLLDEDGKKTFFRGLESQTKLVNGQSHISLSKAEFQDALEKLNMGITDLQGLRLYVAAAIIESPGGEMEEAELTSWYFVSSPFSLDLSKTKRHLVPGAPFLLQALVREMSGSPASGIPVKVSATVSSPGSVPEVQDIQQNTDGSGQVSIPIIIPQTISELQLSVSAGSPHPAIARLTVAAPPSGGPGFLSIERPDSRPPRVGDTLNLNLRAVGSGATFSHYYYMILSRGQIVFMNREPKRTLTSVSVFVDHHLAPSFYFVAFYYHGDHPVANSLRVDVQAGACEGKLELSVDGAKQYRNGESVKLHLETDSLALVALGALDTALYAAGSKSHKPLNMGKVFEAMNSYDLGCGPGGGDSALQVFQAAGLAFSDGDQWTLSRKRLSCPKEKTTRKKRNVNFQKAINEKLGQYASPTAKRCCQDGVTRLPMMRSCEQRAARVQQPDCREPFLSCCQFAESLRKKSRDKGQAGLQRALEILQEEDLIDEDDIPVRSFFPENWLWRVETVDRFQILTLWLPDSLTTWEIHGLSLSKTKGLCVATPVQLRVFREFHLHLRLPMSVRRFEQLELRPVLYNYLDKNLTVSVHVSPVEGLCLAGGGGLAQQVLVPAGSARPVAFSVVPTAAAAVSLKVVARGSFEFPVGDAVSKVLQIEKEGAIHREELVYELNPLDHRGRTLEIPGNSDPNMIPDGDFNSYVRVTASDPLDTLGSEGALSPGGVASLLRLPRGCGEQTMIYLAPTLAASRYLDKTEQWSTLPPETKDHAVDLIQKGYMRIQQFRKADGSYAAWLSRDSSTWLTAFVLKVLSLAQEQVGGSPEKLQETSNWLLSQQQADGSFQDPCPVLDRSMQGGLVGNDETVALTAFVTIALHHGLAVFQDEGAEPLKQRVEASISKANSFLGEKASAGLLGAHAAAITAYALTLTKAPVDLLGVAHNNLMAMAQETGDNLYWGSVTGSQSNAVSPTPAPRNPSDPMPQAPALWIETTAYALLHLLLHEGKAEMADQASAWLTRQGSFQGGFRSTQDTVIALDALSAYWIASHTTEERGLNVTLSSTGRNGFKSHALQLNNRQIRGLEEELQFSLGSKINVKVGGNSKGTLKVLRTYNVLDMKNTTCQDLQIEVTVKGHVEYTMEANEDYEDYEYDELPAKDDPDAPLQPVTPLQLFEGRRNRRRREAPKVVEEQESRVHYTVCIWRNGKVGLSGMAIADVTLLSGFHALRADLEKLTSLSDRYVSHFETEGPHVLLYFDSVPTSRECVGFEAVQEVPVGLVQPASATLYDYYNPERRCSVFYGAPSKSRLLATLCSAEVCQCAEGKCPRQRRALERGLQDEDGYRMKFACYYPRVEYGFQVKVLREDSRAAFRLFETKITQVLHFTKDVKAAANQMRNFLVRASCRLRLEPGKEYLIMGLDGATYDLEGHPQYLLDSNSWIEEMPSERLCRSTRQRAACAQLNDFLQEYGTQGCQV
UniProt P0C0L4, sequence (P0C0L5 20-1744, chain 2 of 2, further chain): as the sequence (P0C0L4 20-1744, chain 1 of 2) above, with A888T, D1054G, P1101L, C1102S, L1105I, D1106H, N1157S, V1188A, L1191R, S1267A counted along it

For Eap34 domains 3-4 (from UniProt Q99QS1), the Kd in the series with C4b (Homo sapiens) [1] is 0.525 µM. “Eap domain 3 or 4 (individual) domain 3 / domain 4 (from UniProt Q2FWW1)”: the dissociation constant Kd with C4b (Homo sapiens) [2] was 40 µM.
